Source: patent US20090155843A1 (ANAPHORE, published 2009)
Where a chain is given by its changes, count along the chain named.

B1: TN3-2-B1-c22-11 (designed binder)
chain: ALQTVCLKGTKVHMKCFLAFTQTKTFHEASEDCISRGGTLSTPQTGSENDALYEYLRQSVGNEAEIWLGLNKRWSRYFWVDMTGTRIAYKNWERPEDAQPDPSNWENCAVLSGAANGKWFGKRCRDQLPYICQFGIV
notes: Monomeric tetranectin CTLD clone
B2: TN3-2-B1-C22 (designed binder)
chain: B1 chain with R94L, E96Q, D97H
notes: Monomeric tetranectin CTLD clone; also called monomeric form of TN2B1C22
B3: TN3-2-B1-c22-1 (designed binder)
chain: B1 chain with E93K, R94L, E96Q, D97H, Q99N, D101S
notes: as for B1
B4: TN3-2-B1-c22-6 (designed binder)
chain: B1 chain with E93M, R94L, P95E, E96K
notes: as for B1
B5: TN3-2-B1-C31 (designed binder)
chain: B1 chain with R94H, P95S, E96S
notes: as for B1
B6: TN3-2-B1-c22-4 (designed binder)
chain: B1 chain with E93A, R94L, E96Q, D97H, Q99S, D101S
notes: as for B1
B7: TN3-2-B1-c22-8 (designed binder)
chain: B1 chain with E93A, P95T, E96Q
notes: as for B1
B8: TN3-2-B1-c22-2 (designed binder)
chain: B1 chain with E93L, R94L, E96Q, D97H, Q99N, D101N
notes: as for B1
B9: TN3-2-B1-C53 (designed binder)
chain: B1 chain with P95L, E96A, S103F
notes: as for B1
B10: TN3-2-B1-c7 (designed binder)
chain: B1 chain with R94L, P95A, E96S, S103A
notes: as for B1
B11: TN3-2-B1-C22-7 (designed binder)
chain: B1 chain with E93G, P95K
notes: Monomeric tetranectin CTLD clone; also called TN3-B1-C22-7; monomeric form of TN2B1C22-7
B12: TN3-2-B1-c22-13 (designed binder)
chain: B1 chain with P95L, E96R, A98S
notes: as for B1
B13: TN3-2-B1-C19 (designed binder)
chain: B1 chain with R94L, P95I, E96R, S103A
notes: as for B1
B14: TN3-2-B1-c22-9 (designed binder)
chain: B1 chain with P95N, E96R
notes: as for B1
B15: TN3-2-B1-c22-16 (designed binder)
chain: B1 chain with E93L, R94L, E96Q, D97H, A98E, D101E
notes: as for B1
B16: TN3-2-B1-c22-15 (designed binder)
chain: B1 chain with E93Q, R94L, E96Q, D97H, Q99D, D101A
notes: as for B1
B17: TN3-2-B1-C29 (designed binder)
chain: B1 chain with R94G, P95I, D97W, S103T, W105F
notes: as for B1
B18: TN3-2-B1-C1 (designed binder)
chain: B1 chain with R94L, P95L, E96S, S103V
notes: as for B1
B19: TN3-2-B1-c22-10 (designed binder)
chain: B1 chain with E93V, P95Q, E96R
notes: as for B1
B20: TN3-2-B1-c22-3 (designed binder)
chain: B1 chain with E93K, R94L, E96Q, D97H, Q99H, D101E
notes: as for B1
B21: TN3-2-B1-c22-12 (designed binder)
chain: B1 chain with E93S, P95Q
notes: as for B1
B22: TN3-2-B1-C24 (designed binder)
chain: B1 chain with P95T, E96T
notes: as for B1
B23: TN3-2-B1-C20 (designed binder)
chain: B1 chain with P95R, E96Q
notes: as for B1
B24: TN3-2-B1-c22-7 (designed binder)
chain: B1 chain with E93G, P95K
notes: as for B1

Each binder was assayed against T1, human tumor necrosis factor (TNF) (human, UniProt P01375 77-233) (assay: phage display selection and maturation).
T1 construct: The assays use 'human TNF'; The target of the phage display selection is printed only as 'TNF'; also called TNF-alpha
T1 sequence (P01375 77-233 limits assumed): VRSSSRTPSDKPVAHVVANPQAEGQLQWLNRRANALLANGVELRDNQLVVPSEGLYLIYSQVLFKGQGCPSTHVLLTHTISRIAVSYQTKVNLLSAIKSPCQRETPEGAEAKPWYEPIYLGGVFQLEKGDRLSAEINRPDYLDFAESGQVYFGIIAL

Row | Binder | binding result
1 | B1 | binds
2 | B2 | binds
3 | B3 | binds
4 | B4 | binds
5 | B5 | binds
6 | B6 | binds
7 | B7 | binds
8 | B8 | binds
9 | B9 | binds
10 | B10 | binds
11 | B11 | binds
12 | B12 | binds
13 | B13 | binds
14 | B14 | binds
15 | B15 | binds
16 | B16 | binds
17 | B17 | binds
18 | B18 | binds
19 | B19 | binds
20 | B20 | binds
21 | B21 | binds
22 | B22 | binds
23 | B23 | binds
24 | B24 | binds
